# In patent publication US20080233131A1:
# What was measured:
# [1] = target: cynomolgus macaque CD4 on lymphocytes / PBMC (cynomolgus macaque (Macaca fascicularis)) (UniProt P79185); assay: flow cytometry of whole blood of TRX1-immunised macaques; competitor 7E14-RPE
# [2] = target: cynomolgus macaque CD4 on lymphocytes / PBMC (cynomolgus macaque (Macaca fascicularis)) (UniProt P79185); assay: flow cytometry of whole blood of TRX1-treated macaques; competitor SK3-RPE
# Sequence of UniProt P79185 (P79185 26-458 limits assumed): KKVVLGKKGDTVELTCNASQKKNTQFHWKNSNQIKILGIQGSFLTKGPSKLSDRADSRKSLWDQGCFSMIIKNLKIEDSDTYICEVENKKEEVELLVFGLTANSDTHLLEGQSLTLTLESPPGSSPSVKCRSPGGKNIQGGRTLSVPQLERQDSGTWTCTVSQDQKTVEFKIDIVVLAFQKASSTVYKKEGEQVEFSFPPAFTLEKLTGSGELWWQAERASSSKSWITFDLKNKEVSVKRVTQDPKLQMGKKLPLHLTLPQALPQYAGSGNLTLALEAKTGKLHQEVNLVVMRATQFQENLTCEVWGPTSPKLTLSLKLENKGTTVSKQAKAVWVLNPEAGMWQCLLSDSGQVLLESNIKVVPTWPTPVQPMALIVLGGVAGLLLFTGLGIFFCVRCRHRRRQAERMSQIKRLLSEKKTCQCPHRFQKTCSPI
substance,measurement,setting,value
humanized anti-human CD4 monoclonal antibody TRX1,reduction in the MFI of 7E14 staining,[1],50%
same,reduction in the MFI of SK3 staining,[2],50%
